Test results published in the nanobody polyreactivity screen of Harvey et al. (2022).

experiment: yeast display, Sf9 membrane polyspecificity reagent, FACS + sequencing; frameworks hold sequencing errors
How it was run: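 Galactose-induced (36–48 hours) yeast carrying a synthetic nanobody display library were exposed to 10% biotinylated, detergent-solubilized Sf9 membrane reagent at 4 °C for 1 hour. FACS followed streptavidin microbead enrichment, using low and high (top ~1%) gates for expression (anti-HA) and reagent binding (streptavidin). Colony PCR, MiSeq 2 × 250 sequencing and CDR-length filtering followed. Labels for polyreactivity reflect the gate of origin.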

Row | Sequence | polyreactivity (PSR sort gate)
1 | QVQLVESGGGLVQAGGSLRLSCAASGSIFRGNAMGWYRQAPGKERELVAAINKSGGSTYYADSVKGRFTISRDNAKNTVYLQMNSLKPEDTAVYYCAAVYKRLQPYGYWGQGTQVTVSS | high polyreactivity
2 | QVQLVESGGGLVQAGGSLRLSCAASGSIFRGNAMGWYRQAPGKERELVAAISGSAGRTYYADSVKGRFTISRDNAKNTVYLQMNSLKPEDTAVYYCAADSFKGYDYWGQGTQVTVSS | high polyreactivity
3 | QVQLVESGGGLVQAGGSLRLSCAASGSIFRGNAMGWYRQAPGKERELVAAISKSGGSTYYADSVKGRFTISRDNAKNTVNLQMNSLKPEDTAVYYCAARTTYLYGMYYWGQGTQVTVSS | low polyreactivity
4 | QVQLVESGGGLVQAGGSLRLSCAASGSIFRGNSMGWYRQAPGKERELVAVITWSGGSTYYADSVKGRFTISRDNAKNTVYLQMNSLKPEDTAVYYCNAARKQRVYFAGDYWGQGTQVTVSS | high polyreactivity
5 | QVQLVESGGGLVQAGGSLRLSCAASGSIFRGYAMGWYRQAPGKERELVAAITKIGASTYYADSVKGRFTISRDNAKNTVYLQMYSLKPEDTAVYYCNKDRGITPYRAYWGMDYWGQGTQVTVSS | low polyreactivity
6 | QVQLVESGGGLVQAGGSLRLSCAASGSIFRGYAMGWYRQAPGKERELVAAITKRGGNTYYADSVKGRFTISRDNAKNTVYLQMNSLKPDDTAVYYCAKAGWGKWVYAQMDYWGQGTQVTVSS | high polyreactivity
7 | QVQLVESGGGLVQAGGSLRLSCAASGSIFRGYAMGWYRQAPGKERELVAAITSSGGSTNYADSVKGRFTISRDNAKNTVYLQMNSLKPEDTAVYYCAKAPGLWHLIQRMDYWGQGTQVTVSS | low polyreactivity
8 | QVQLVESGGGLVQAGGSLRLSCAASGSIFRGYTMGGYRQAPGKETELVAAISRSGGSTYYADSVKGRFTISRDNAKNTVYLQMNSLKPEDTAVYYCAADSFRTRAIYDYWGQGTQVTVSS | high polyreactivity
9 | QVQLVESGGGLVQAGGSLRLSCAASGSIFRHYTMGWYRQAPGKERELVAVISSGGNTNYADSVKGLFTISRDNAKYTDYLQLNSLKPEDTAVYYCAAGGYDVYHDPYYYWGQGTQVTVSS | high polyreactivity
10 | QVQLVESGGGLVQAGGSLRLSCAASGSIFRINAMGWYRQAPGKERELVAAISTSGGTTYYADSVKGRFTISRDNAKNTVYLQMNSLKPEDTAVYYCSARRVTSPFGSDSWGQGTQVTVSS | low polyreactivity
11 | QVQLVESGGGLVQAGGSLRLSCAASGSIFRIYAMGWYRLEPGKERELVSGISKSVGSTYYADSVKGRFTISRDNAKNTVYLQMNSLKTEDTAVYYCNARRPSWGLDKYDYWGQGTQVTVSS | low polyreactivity
12 | QVQLVESGGGLVQAGGSLRLSCAASGSIFRIYAMGWYRQAPGKEREFVAAISSRGGRTYYADSVKGRFTISRDNAKNTVYLQMNSLKPEDTAVYYCNARATRGSYYEYEYWGQGTQVTVSS | high polyreactivity
13 | QVQLVESGGGLVQAGGSLRLSCAASGSIFRIYAMGWYRQAPGKERELVAAISRGSTRTYYADSVKGRFTISRDNAKNTVYLQMNSLKPEDTAVYYCAKRGISPYGYWGQGTQVTVSS | high polyreactivity
14 | QVQLVESGGGLVQAGGSLRLSCAASGSIFRKYALGWYRQAPGKERELVAAIRSSGGSTYYADSVKGRFTISRDNAKNTVYLQMNSLKPEDTAVYYCAARYYRPSRYDYWGQGTQVTVSS | high polyreactivity
15 | QVQLVESGGGLVQAGGSLRLSCAASGSIFRLNAMGWYRQAPGKERELVAAISRNTGRTYYADSVKGRFTISRDNAKNTVYLQMNSLKPEDTAVYYCAADRSPTGYVRVYYWGQGPQVTVSS | high polyreactivity
16 | QVQLVESGGGLVQAGGSLRLSCAASGSIFRLNAMGWYRQAPGKERELVARIDSSGSTNYADSVKGRFTISRDNAKNTVYLQMNSLKPEDTAVYYCAAGLVLIVGMDSWGQGTQVTVSS | low polyreactivity

Row | Sequence | polyreactivity (PSR sort gate)
17 | QVQLVESGGGLVQAGGSLRLSCAASGSIFRLNTMGWYRQAPGKERELVAAIFTSGGSTYADSVKGRFTISRDNAKNTVYLQMNSLKPEDTAVYYCAGMDYWGQGTQVTVSS | low polyreactivity
18 | QVQLVESGGGLVQAGGSLRLSCAASGSIFRLYAMGWYRPAPGKERELVATITSGGNTYADSVKGRFTISRDNAKNTVYLQMNSLKPEDTAVYYCAARYRYRGTQRPYVGYYRNDYWGQGTQVTVSS | high polyreactivity
19 | QVQLVESGGGLVQAGGSLRLSCAASGSIFRLYAMGWYRQAPGKERELVAAISRRGGSTNYADSVKGRFTISRDNAKNTVYLQMNSLKPEDTAVYYCARDVDTHYPYAYDYWGQGTQVTVSS | high polyreactivity
20 | QVQLVESGGGLVQAGGSLRLSCAASGSIFRLYGMGWYRQAPGKERELVASITYRGGNTYYADSVKGRFTISRDNAKNTVYLQMNSLKPEDTAVYYCARSGYQKVGGFRYDYWGQGTQVTVSS | low polyreactivity
21 | QVQLVESGGGLVQAGGSLRLSCAASGSIFRLYTMGWYRQAPGKERELVAAISQSGGRTYYADSVKGRFTISRDNAKNTVYLQMNSLNPEDTAVYYCNAVGPYRPYGGQGAPYDYWGQGTQVTVSS | high polyreactivity
22 | QVQLVESGGGLVQAGGSLRLSCAASGSIFRNYAMGWSRQAPGKERELVAAITSIGGGTYYADSVKGRFTISRDNAKNTVYLQMNSLKPEDTADYYCAADYGFYPYDYVYWGQGTQVTVSS | low polyreactivity
23 | QVQLVESGGGLVQAGGSLRLSCAASGSIFRNYAMGWYRQAPGKERELVAAITRGGGSTYYADSVKGRFTISRDNAKNTVYLQMNSLKPEDTAVYYGAAGSTRERNPRYGYWGQGTQVTVSS | high polyreactivity
24 | QVQLVESGGGLVQAGGSLRLSCAASGSIFRPNAMGWYRQAPGKERELVAAITWSGDSTYYADSVKGRFTISRDNAKNTVYLQMNSLKPEDTADYYCAADFTYQGSSANDYWGQGTQVTVSS | low polyreactivity
25 | QVQLVESGGGLVQAGGSLRLSCAASGSIFRQYAMGWYRQAPGKDRELVAAIRSGGSTYYADSVQGRFTISRDNAKNTVYLQMNSLKPEDTAVYYCARGYSWSVGYPRVQDMDYWGQGTQVTVSS | high polyreactivity
26 | QVQLVESGGGLVQAGGSLRLSCAASGSIFRRYAMGWNRQAPGKERELVAYISRSGGSTYYADSVKGRFTISRDNAKNTVYLQMNRLKPEDTAVYYCAAQRYRTGDSWGQGTQVTVSS | high polyreactivity
27 | QVQLVESGGGLVQAGGSLRLSCAASGSIFRRYAMGWYRQAPGKEREFVAAITRSGGGTYYADSVKGRFTLSRDNAKNTVYLQMNSLIPEDTAVYYCAKDVFVQRSRYPEGDYWGQGTQVTVSS | high polyreactivity
28 | QVQLVESGGGLVQAGGSLRLSCAASGSIFRRYAMGWYRQAPGKERELVAAISFSGYSTYYADSVKGRFTISRDNAKNTVYLQMNSLKPEDTAVYYCAARSQRHKLSRDYNYWGQGTQVTVSS | high polyreactivity
29 | QVQLVESGGGLVQAGGSLRLSCAASGSIFRRYAMGWYRQAPGKERELVAGISSGGYTNYADSVKGRFTISRDNAKNTVYLQMNSLKPEDTAVYYCAAKQYRYVRYRPVDYWGQGTQVTVSS | high polyreactivity
30 | QVQLVESGGGLVQAGGSLRLSCAASGSIFRSYAMGWYRQAPGKERELVAAIRSDGRTNYADSVKGRFTISRDNAKNTVYFQMNSLKPEDTAVYYCDANAYYSYWRSMDYWGQGTQVTVSS | low polyreactivity
31 | QVQLVESGGGLVQAGGSLRLSCAASGSIFRSYAMGWYRQAPGKERELVAAISRRGGSTYYADSVKGRFTISRDNVKNTVYLQMNSLKPEDTAVYYCAADRTGPYDYWGQGTQVTVSS | high polyreactivity
32 | QVQLVESGGGLVQAGGSLRLSCAASGSIFRSYAMGWYRQAPGKERELVAAISWDGGTTYYADSVKGRFTISRDNAKNTVYLQMNSLKPEDTAVYYCAADASLLGLFQGYDYRGQGTQVTVSS | low polyreactivity
